*1 amine or outer side, *2 acyl side, *3 side chain or, on linkers, in order; H or OH if unused. Where no end group is shown, it is not given here. Side-chain parts run from the residue outwards. [ ]: non-standard residue; d: D form. The star is where a group is joined. C18 diacid = O=C(O)CCCCCCCCCCCCCCCCC(=O)*; C16 diacid = O=C(O)CCCCCCCCCCCCCCC(=O)*; γGlu = O=C(O)[C@H](CCC(=O)[*:2])N[*:1]; AEEA = NCCOCCOCC(=O)O
T1: CRF1R receptor (UniProt P34998 24-415, limits assumed)
T1 sequence (looked up): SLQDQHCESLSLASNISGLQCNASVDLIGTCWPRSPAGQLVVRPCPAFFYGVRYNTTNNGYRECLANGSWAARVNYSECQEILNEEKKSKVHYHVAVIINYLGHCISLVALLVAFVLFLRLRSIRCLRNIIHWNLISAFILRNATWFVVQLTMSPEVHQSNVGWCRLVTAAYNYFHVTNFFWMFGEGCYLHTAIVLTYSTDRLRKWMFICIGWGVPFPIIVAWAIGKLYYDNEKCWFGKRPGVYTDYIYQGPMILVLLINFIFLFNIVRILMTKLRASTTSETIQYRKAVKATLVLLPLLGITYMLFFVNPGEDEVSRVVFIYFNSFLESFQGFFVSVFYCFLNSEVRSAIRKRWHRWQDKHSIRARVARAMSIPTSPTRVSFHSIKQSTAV


Target: T1, CRF1R receptor
Assay: cell-based or functional assay

Emax (% I) [%] | EC50 [nM] | Binder
38 | – | IVLSLD[dV]PIKLK([AEEA-AEEA-γGlu-C18 diacid])QILLKQERQKKQREQAEKNKQILEQV-NH2 (N-terminus assumed; SMILES CC[C@H](C)[C@H](N)C(=O)N[C@H](C(=O)N[C@@H](CC(C)C)C(=O)N[C@@H](CO)C(=O)N[C@@H](CC(C)C)C(=O)N[C@@H](CC(=O)O)C(=O)N[C@@H](C(=O)N1CCC[C@H]1C(=O)N[C@H](C(=O)N[C@@H](CCCCN)C(=O)N[C@@H](CC(C)C)C(=O)N[C@@H](CCCCNC(=O)COCCOCCNC(=O)COCCOCCNC(=O)CC[C@H](NC(=O)CCCCCCCCCCCCCCCCC(=O)O)C(=O)O)C(=O)N[C@@H](CCC(N)=O)C(=O)N[C@H](C(=O)N[C@@H](CC(C)C)C(=O)N[C@@H](CC(C)C)C(=O)N[C@@H](CCCCN)C(=O)N[C@@H](CCC(N)=O)C(=O)N[C@@H](CCC(=O)O)C(=O)N[C@@H](CCCNC(=N)N)C(=O)N[C@@H](CCC(N)=O)C(=O)N[C@@H](CCCCN)C(=O)N[C@@H](CCCCN)C(=O)N[C@@H](CCC(N)=O)C(=O)N[C@@H](CCCNC(=N)N)C(=O)N[C@@H](CCC(=O)O)C(=O)N[C@@H](CCC(N)=O)C(=O)N[C@@H](C)C(=O)N[C@@H](CCC(=O)O)C(=O)N[C@@H](CCCCN)C(=O)N[C@@H](CC(N)=O)C(=O)N[C@@H](CCCCN)C(=O)N[C@@H](CCC(N)=O)C(=O)N[C@H](C(=O)N[C@@H](CC(C)C)C(=O)N[C@@H](CCC(=O)O)C(=O)N[C@@H](CCC(N)=O)C(=O)N[C@H](C(N)=O)C(C)C)[C@@H](C)CC)[C@@H](C)CC)[C@@H](C)CC)C(C)C)C(C)C) [SEQ ID NO 150]
53 | 25.3 | IVLSLD[dV]PIKLK([γGlu-C16 diacid])QILLKQERQKKQREQAEKNKQILEQV-NH2 (N-terminus assumed; SMILES CC[C@H](C)[C@H](N)C(=O)N[C@H](C(=O)N[C@@H](CC(C)C)C(=O)N[C@@H](CO)C(=O)N[C@@H](CC(C)C)C(=O)N[C@@H](CC(=O)O)C(=O)N[C@@H](C(=O)N1CCC[C@H]1C(=O)N[C@H](C(=O)N[C@@H](CCCCN)C(=O)N[C@@H](CC(C)C)C(=O)N[C@@H](CCCCNC(=O)CC[C@H](NC(=O)CCCCCCCCCCCCCCC(=O)O)C(=O)O)C(=O)N[C@@H](CCC(N)=O)C(=O)N[C@H](C(=O)N[C@@H](CC(C)C)C(=O)N[C@@H](CC(C)C)C(=O)N[C@@H](CCCCN)C(=O)N[C@@H](CCC(N)=O)C(=O)N[C@@H](CCC(=O)O)C(=O)N[C@@H](CCCNC(=N)N)C(=O)N[C@@H](CCC(N)=O)C(=O)N[C@@H](CCCCN)C(=O)N[C@@H](CCCCN)C(=O)N[C@@H](CCC(N)=O)C(=O)N[C@@H](CCCNC(=N)N)C(=O)N[C@@H](CCC(=O)O)C(=O)N[C@@H](CCC(N)=O)C(=O)N[C@@H](C)C(=O)N[C@@H](CCC(=O)O)C(=O)N[C@@H](CCCCN)C(=O)N[C@@H](CC(N)=O)C(=O)N[C@@H](CCCCN)C(=O)N[C@@H](CCC(N)=O)C(=O)N[C@H](C(=O)N[C@@H](CC(C)C)C(=O)N[C@@H](CCC(=O)O)C(=O)N[C@@H](CCC(N)=O)C(=O)N[C@H](C(N)=O)C(C)C)[C@@H](C)CC)[C@@H](C)CC)[C@@H](C)CC)C(C)C)C(C)C) [SEQ ID NO 151]

— patent publication US20260001928A1 (CORTERIA PHARMACEUTICALS, priority 2022, published 2026)
